Assay results published in patent US20230407373A1 (priority 2020, published 2023).
Like-named read-outs stand apart in the source and are kept apart here.

What was measured:
HCoV-OC43 gRNA and sgRNA = format: binding; conditions: for target (unweighted spectral count): OC43 Probe II, infected cells
gRNA of HCoV-OC43 = format: binding; conditions: type n_48_v: 48 hours post-infection; for target (spectral count, OC43 Probe I RNP capture): infected cells, unweighted spectral count; for background (spectral count, no-probe control): no-probe control on infected cells

Molecule	target (unweighted spectral count, OC43 Probe II) (HCoV-OC43 gRNA and sgRNA; type n_48_v, 48 hpi, OC43 Probe II capture on infected cells)	background (unweighted spectral count, no-probe control) (HCoV-OC43 gRNA and sgRNA; type n_48_v, 48 hpi, no-probe control on infected cells)	target (spectral count, OC43 Probe I RNP capture) (gRNA of HCoV-OC43)	background (spectral count, no-probe control) (gRNA of HCoV-OC43)	target (unweighted spectral count, OC43 Probe II capture) (HCoV-OC43 gRNA and sgRNA; 36 hpi, type n_36_v, tested against no-probe control, FDR<10%)	target (unweighted spectral count) (HCoV-OC43 gRNA and sgRNA; 12 hpi (type n_12_v), tested against no-probe control)	target (unweighted spectral count) (HCoV-OC43 gRNA and sgRNA; 24 hpi (type n_24_v), tested against no-probe control)
ADAR (protein, UniProt P55265 1-1226, looked up) Double-stranded RNA-specific …: MNPRQGYSLSGYYTHPFQGYEHRQLRYQQPGPGSSPSSFLLKQIEFLKGQLPEAPVIGKQTPSLPPSLPGLRPRFPVLLASSTRGRQVDIRGVPRGVHLRSQGLQRGFQHPSPRGRSLPQRGVDCLSSHFQELSIYQDQEQRILKFLEELGEGKATTAHDLSGKLGTPKKEINRVLYSLAKKGKLQKEAGTPPLWKIAVSTQAWNQHSGVVRPDGHSQGAPNSDPSLEPEDRNSTSVSEDLLEPFIAVSAQAWNQHSGVVRPDSHSQGSPNSDPGLEPEDSNSTSALEDPLEFLDMAEIKEKICDYLFNVSDSSALNLAKNIGLTKARDINAVLIDMERQGDVYRQGTTPPIWHLTDKKRERMQIKRNTNSVPETAPAAIPETKRNAEFLTCNIPTSNASNNMVTTEKVENGQEPVIKLENRQEARPEPARLKPPVHYNGPSKAGYVDFENGQWATDDIPDDLNSIRAAPGEFRAIMEMPSFYSHGLPRCSPYKKLTECQLKNPISGLLEYAQFASQTCEFNMIEQSGPPHEPRFKFQVVINGREFPPAEAGSKKVAKQDAAMKAMTILLEEAKAKDSGKSEESSHYSTEKESEKTAESQTPTPSATSFFSGKSPVTTLLECMHKLGNSCEFRLLSKEGPAHEPKFQYCVAVGAQTFPSVSAPSKKVAKQMAAEEAMKALHGEATNSMASDNQPEGMISESLDNLESMMPNKVRKIGELVRYLNTNPVGGLLEYARSHGFAAEFKLVDQSGPPHEPKFVYQAKVGGRWFPAVCAHSKKQGKQEAADAALRVLIGENEKAERMGFTEVTPVTGASLRRTMLLLSRSPEAQPKTLPLTGSTFHDQIAMLSHRCFNTLTNSFQPSLLGRKILAAIIMKKDSEDMGVVVSLGTGNRCVKGDSLSLKGETVNDCHAEIISRRGFIRFLYSELMKYNSQTAKDSIFEPAKGGEKLQIKKTVSFHLYISTAPCGDGALFDKSCSDRAMESTESRHYPVFENPKQGKLRTKVENGEGTIPVESSDIVPTWDGIRLGERLRTMSCSDKILRWNVLGLQGALLTHFLQPIYLKSVTLGYLFSQGHLTRAICCRVTRDGSAFEDGLRHPFIVNHPKVGRVSIYDSKRQSGKTKETSVNWCLADGYDLEILDGTRGTVDGPRNELSRVSKKNIFLLFKKLCSFRYRRDLLRLSYGEAKKAARDYETAKNYFKKGLKDMGYGNWISKPQEEKNFYLCPV	11	2	11	2	–	–	–
TOP1 (protein, UniProt P11387 2-765, looked up) DNA topoisomerase 1: SGDHLHNDSQIEADFRLNDSHKHKDKHKDREHRHKEHKKEKDREKSKHSNSEHKDSEKKHKEKEKTKHKDGSSEKHKDKHKDRDKEKRKEEKVRASGDAKIKKEKENGFSSPPQIKDEPEDDGYFVPPKEDIKPLKRPRDEDDADYKPKKIKTEDTKKEKKRKLEEEEDGKLKKPKNKDKDKKVPEPDNKKKKPKKEEEQKWKWWEEERYPEGIKWKFLEHKGPVFAPPYEPLPENVKFYYDGKVMKLSPKAEEVATFFAKMLDHEYTTKEIFRKNFFKDWRKEMTNEEKNIITNLSKCDFTQMSQYFKAQTEARKQMSKEEKLKIKEENEKLLKEYGFCIMDNHKERIANFKIEPPGLFRGRGNHPKMGMLKRRIMPEDIIINCSKDAKVPSPPPGHKWKEVRHDNKVTWLVSWTENIQGSIKYIMLNPSSRIKGEKDWQKYETARRLKKCVDKIRNQYREDWKSKEMKVRQRAVALYFIDKLALRAGNEKEEGETADTVGCCSLRVEHINLHPELDGQEYVVEFDFLGKDSIRYYNKVPVEKRVFKNLQLFMENKQPEDDLFDRLNTGILNKHLQDLMEGLTAKVFRTYNASITLQQQLKELTAPDENIPAKILSYNRANRAVAILCNHQRAPPKTFEKSMMNLQTKIDAKKEQLADARRDLKSAKADAKVMKDAKTKKVVESKKKAVQRLEEQLMKLEVQATDREENKQIALGTSKLNYLDPRITVAWCKKWGVPIEKIYNKTQREKFAWAIDMADEDYEF	–	–	12	2	14	31	12
